The assay concerns the target bovine submaxillary mucin (BSM) (bovine). Description: ELISA on BSM-coated wells, 0-100 nM antibody; periodate-treated signal subtracted (periodate-sensitive STn binding curve). (In an ELISA, binding on a coated surface is turned into a signal by an enzyme label.)

B1: SIA01 (antibody, V domains shown)
VH: EVQLVQSGAEVKKPGASVKVSCKASGYTFTDHAIHWVRQAPGQGLEWMGYFSPGNDDIKYNEKFRGRVTMTADKSSSTAYMELRSLRSDDTAVYFCKRSLSTPYWGQGTLVTVSS
VL: DIVMTQSPDSLAVSLGERATINCKSSQSLLNRGNHKNYLTWYQQKPGQPPKLLIYWASTRESGVPDRFSGSGSGTDFTLTISSLQAEDVAVYYCQNDYTYPYTFGQGTKVEIK
Turning to B1, the EC50 was 4.2 nM.

The term EC50 denotes the concentration giving half of the maximal effect.

For the origin of these results see patent US20200247902A1.
